Key:
mfNPR1-mFc [1] = molecular target: T1, mfNPR1-mFc (monkey); experiment: SPR, mAb captured, 25C
T1 construct: also called dimeric monkey NPR1
T1 chain: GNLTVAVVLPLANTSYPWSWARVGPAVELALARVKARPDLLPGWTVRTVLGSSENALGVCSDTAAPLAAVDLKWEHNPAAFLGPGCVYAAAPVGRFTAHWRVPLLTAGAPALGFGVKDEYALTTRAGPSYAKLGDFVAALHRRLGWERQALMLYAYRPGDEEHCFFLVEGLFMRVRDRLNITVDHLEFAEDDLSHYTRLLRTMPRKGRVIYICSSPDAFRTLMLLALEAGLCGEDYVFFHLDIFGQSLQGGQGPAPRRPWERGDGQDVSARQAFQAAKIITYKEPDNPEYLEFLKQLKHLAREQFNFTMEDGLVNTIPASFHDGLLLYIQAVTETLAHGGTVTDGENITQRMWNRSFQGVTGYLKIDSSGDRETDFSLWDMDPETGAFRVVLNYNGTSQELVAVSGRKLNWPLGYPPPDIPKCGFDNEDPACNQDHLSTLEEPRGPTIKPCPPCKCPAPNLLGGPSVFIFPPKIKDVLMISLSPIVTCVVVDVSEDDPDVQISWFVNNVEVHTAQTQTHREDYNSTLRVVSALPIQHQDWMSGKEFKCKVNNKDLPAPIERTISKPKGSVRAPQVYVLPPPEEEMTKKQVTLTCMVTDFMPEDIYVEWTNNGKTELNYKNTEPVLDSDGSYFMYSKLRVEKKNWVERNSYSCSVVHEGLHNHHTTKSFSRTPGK
In short: (§1)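 Equilibrium dissociation constants come from surface plasmon resonance, with the NPR1 reagent flowed over captured antibody. The capture layer was anti-human Fc (monoclonal or goat polyclonal), amine-coupled onto a CM5 chip. Buffer was HEPES-buffered saline with EDTA and 0.05% Tween-20, pH 7.4.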

[2] = molecular target: T2, hNPR1-mFc:hANP or hNPR1-hFc:hANP complex (human, UniProt P01160 124-151); experiment: SPR, mAb captured, 25C
T2 construct: also called human NPR1 complexed to ANP
In short: as §1

mfNPR1-mFc:hANP complex [3] = molecular target: T3, mfNPR1-mFc:hANP complex (monkey; human, UniProt P01160 124-151); experiment: SPR, mAb captured, 25C
T3 construct: also called monkey NPR1 complexed to ANP
In short: as §1

mfNPR1-mFc:hBNP complex = molecular target: T4, mfNPR1-mFc:hBNP complex (monkey; human, UniProt P16860 103-134); experiment: SPR, mAb captured, 25C
T4 construct: also called monkey NPR1 complexed to BNP
In short: as §1

hNPR1-mFc:hBNP complex [4] = molecular target: T5, hNPR1-mFc:hBNP complex (human, UniProt P16860 103-134); experiment: SPR, mAb captured, 25C
T5 construct: also called human NPR1 complexed to BNP
In short: as §1

mfNPR1-mFc [5] = molecular target: T1, mfNPR1-mFc; experiment: SPR, mAb captured, 37C
In short: as §1

[6] = molecular target: T2, hNPR1-mFc:hANP or hNPR1-hFc:hANP complex; experiment: SPR, mAb captured, 37C
In short: as §1

mfNPR1-mFc:hANP complex [7] = molecular target: T3, mfNPR1-mFc:hANP complex; experiment: SPR, mAb captured, 37C
In short: as §1

hNPR1-mFc:hBNP complex [8] = molecular target: T5, hNPR1-mFc:hBNP complex; experiment: SPR, mAb captured, 37C
In short: as §1

B1: mAb25498 (antibody, human IgG4, V domains shown)
VH: QVQLVESGGGVVQPGRSLRLSCVASGFTFSSYGMVWVRQTPGKGLEWVAVIWHDGTNNYYADSVKGRFTISRDNSKNTLYLQMNSLRAEDTAVYYCAREPWLVRGYYYYAMDVWGQGTTVTVSS
VL: not shown
mfNPR1-mFc [1]
  100 nM Ag Bound (RU): 128 RU
  Kd: 2.45 nM
  koff: 0.000177 s⁻¹
  kon: 72000 M⁻¹ s⁻¹
  t½: 1.09 h
[2]
  100 nM Ag Bound (RU): 52 RU
  Kd: 6.93 nM
  koff: 0.000317 s⁻¹
  kon: 45800 M⁻¹ s⁻¹
  t½: 0.607 h
mfNPR1-mFc:hANP complex [3]
  100 nM Ag Bound (RU): 81 RU
  Kd: 2.68 nM
  koff: 0.000112 s⁻¹
  kon: 41900 M⁻¹ s⁻¹
  t½: 1.72 h
mfNPR1-mFc:hBNP complex
  100 nM Ag Bound (RU): 81 RU
  Kd: 2.53 nM
  koff: 0.000109 s⁻¹
  kon: 43200 M⁻¹ s⁻¹
  t½: 1.77 h
hNPR1-mFc:hBNP complex [4]
  100 nM Ag Bound (RU): 55 RU
  Kd: 5.28 nM
  koff: 0.000256 s⁻¹
  kon: 48500 M⁻¹ s⁻¹
  t½: 0.752 h
mfNPR1-mFc [5]
  100 nM Ag Bound (RU): 170 RU
  Kd: 4.06 nM
  koff: 0.000372 s⁻¹
  kon: 91600 M⁻¹ s⁻¹
  t½: 0.518 h
[6]
  100 nM Ag Bound (RU): 74 RU
  Kd: 13.6 nM
  koff: 0.00072 s⁻¹
  kon: 53000 M⁻¹ s⁻¹
  t½: 0.267 h
mfNPR1-mFc:hANP complex [7]
  100 nM Ag Bound (RU): 114 RU
  Kd: 8.89 nM
  koff: 0.000445 s⁻¹
  kon: 50100 M⁻¹ s⁻¹
  t½: 0.432 h
hNPR1-mFc:hBNP complex [8]
  100 nM Ag Bound (RU): 76 RU
  Kd: 17.9 nM
  koff: 0.000948 s⁻¹
  kon: 52900 M⁻¹ s⁻¹
  t½: 0.203 h

B2: mAb25508 (antibody, human IgG4, V domains shown)
VH: EVQLVESGGGVVRPGGSLRLSCAASGFNVDDYGMSWVRQIPGKGLEWISGINWNGGRIYYADSMKGRITISRDNAKNSLYLQMNSLRAEDTALYHCVRDQWLVRGLDYWGQGTLVTVSS
VL: DIQMTQSPSSLSASVGDRVTITCRASQGIYNYLAWFQQKPGKAPKSLIYAASSLQSGVPSKFSGSGSGTDFTLTISSLQPEDFATYYCQQYNTYPYTFGQGTKLEIK
mfNPR1-mFc [1]
  100 nM Ag Bound (RU): 230 RU
  Kd: 0.116 nM
  koff: 5.98e-05 s⁻¹
  kon: 515000 M⁻¹ s⁻¹
  t½: 3.22 h
[2]
  100 nM Ag Bound (RU): 199 RU
  Kd: 0.34 nM
  koff: 8.97e-05 s⁻¹
  kon: 264000 M⁻¹ s⁻¹
  t½: 2.15 h
mfNPR1-mFc:hANP complex [3]
  100 nM Ag Bound (RU): 224 RU
  Kd: 0.233 nM
  koff: 7.32e-05 s⁻¹
  kon: 314000 M⁻¹ s⁻¹
  t½: 2.63 h
mfNPR1-mFc:hBNP complex
  100 nM Ag Bound (RU): 229 RU
  Kd: 0.29 nM
  koff: 8.91e-05 s⁻¹
  kon: 308000 M⁻¹ s⁻¹
  t½: 2.16 h
hNPR1-mFc:hBNP complex [4]
  100 nM Ag Bound (RU): 200 RU
  Kd: 0.343 nM
  koff: 8.57e-05 s⁻¹
  kon: 250000 M⁻¹ s⁻¹
  t½: 2.24 h
mfNPR1-mFc [5]
  100 nM Ag Bound (RU): 268 RU
  Kd: 0.132 nM
  koff: 8.36e-05 s⁻¹
  kon: 634000 M⁻¹ s⁻¹
  t½: 2.3 h
[6]
  100 nM Ag Bound (RU): 230 RU
  Kd: 0.506 nM
  koff: 0.000148 s⁻¹
  kon: 293000 M⁻¹ s⁻¹
  t½: 1.3 h
mfNPR1-mFc:hANP complex [7]
  100 nM Ag Bound (RU): 262 RU
  Kd: 0.355 nM
  koff: 0.000146 s⁻¹
  kon: 411000 M⁻¹ s⁻¹
  t½: 1.32 h
hNPR1-mFc:hBNP complex [8]
  100 nM Ag Bound (RU): 236 RU
  Kd: 0.466 nM
  koff: 0.000164 s⁻¹
  kon: 352000 M⁻¹ s⁻¹
  t½: 1.17 h

From patent US20240309103A1 (Regeneron, published 2024)
